In assay [1] the target is human BCMA (B-cell maturation antigen) expressed on cells (human) (UniProt Q02223). Put plainly: flow cytometry, hBCMA-expressing HEK293 cells against parental HEK293 cells. A general note: Flow cytometry measures light scatter and fluorescence of single cells or particles in a stream.
The target in assay [2] is T1, human BCMA (B-cell maturation antigen) expressed on cells (human, UniProt Q02223 1-184).
T1 construct: whole, on cells; also called hBCMA; hBCMA/HEK293 cell line
T1 sequence (looked up): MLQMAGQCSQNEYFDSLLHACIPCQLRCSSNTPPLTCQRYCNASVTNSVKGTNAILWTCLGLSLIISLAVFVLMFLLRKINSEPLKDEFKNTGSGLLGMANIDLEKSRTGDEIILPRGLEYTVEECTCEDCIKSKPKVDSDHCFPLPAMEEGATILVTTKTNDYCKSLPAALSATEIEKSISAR
Put plainly: flow cytometry on hBCMA-expressing HEK293 cells.

Assay [3] concerns the target T1, human BCMA (B-cell maturation antigen) …. Put plainly: flow cytometry, hBCMA-overexpressing HEK293 compared with OPM2 and RPMI-8226 cells.

B1: BCMA-20 scFv (scFv)
scFv: EVQLLESGGGLVQPGRSLRLSCAASGFTFDDYAMHWVRQAPGKGLEWVSGISWNSGSIGYADSVKGRFTISRDNAKNSLYLQMNSLRAEDTALYYCAKGGLGITPYYFDYWGQGTLVTVSSGGGGSGGGGSGGGGSQPVLTQPPSASGTPGQRVTISCSGGKTVNWFRQVPGTAPQLLIYSNDQRPSGVPDRFSGSKSGSSASLDISGLQSEDEAYYYCGSWDDSLNAWVFGGETKLTVL
Regarding B1, in assay [1], the fold selective binding (hBCMA-expressing HEK293 over parental HEK293) was 10.8 fold.

B2: BCMA-13 scFv (scFv)
scFv: QMQLVQYGGGVVQPGRSLRLSCAASGFTFSSYAMHWVRQAPGKGLEWVAVISYDGSNKYYADSVKGRFTISRDNSKNTLYLQMNSLKAEDTAVYYCATLPGRDGYPGAFDYRGQGTLVTVSSGGGGSGGGGSGGGGSQAVLTQPPSASGTPGQRVTISCSGSGSNIGSNDVSWYQQIPGTAPKLLIYWNDQRPSGVPDRFSASKSGTSASLAISGLRSEDEADYYCAAWDDSLGGSWVFGGGTKVTVL
Take B2: the binding result in assay [2] is “no binding”.

B3: BCMA-18 scFv (scFv)
scFv: EVQLLESGGGLVQPGGSLRLSCAASGFTFSSYWMSWHRQAPGKGPEWVAHINQDGSEKYYVDSVKGRFTISRDNAESSLYLQMNSLRAEDTAVYYCARWLAVTNWGQGTLVTVSSGGGGSGGGGSGGGGSQSVLTQPPSASGTPGQRVTISCSGSGSNIGSNDVSWYQQIPGTAPKLLIYWNDQRPSGVPDRFSGSKSGTSASLAISGLRSEDEADYYCAAWDDSLNGWVFGGGTKLTVL
As for B3, the fold selective binding (hBCMA-expressing HEK293 over parental HEK293) in assay [1] amounted to 2.2 fold.

B4: BCMA-22 scFv (scFv)
scFv: EVQLVESGGGLVKPGGSLRLSCAASGFTFSDYYMSWIRQAPGKGLEWVSYISSSGSTIYYADSVKGRFTISRDNAKNSLYLQMNSLRAEDTAVYYCAKVDGDYTEDYWGQGTLVTVSSGGGGSGGGGSGGGGSQSALTQPASVSGSPGQSITISCTGSSSDVGKYNLVSWYQQPPGKAPKLIIYDVNKRPSGVSNRFSGSKSGNTATLTISGLQGDDEADYYCCSYGGSRSYVFGTGTKVTVL
As for B4, the fold selective binding (hBCMA-expressing HEK293 over parental HEK293) in assay [1] was 7.5 fold.

B5: BCMA-21 scFv (scFv)
scFv: EVQLVESGGGLVKPGGSLKLSCAASGFTFSDYYMSWIRQAPGKGLEWVSYISSSGSTIYYADSVKGRFTISRDNAKNSLYLQMNSLRAEDTAVYYCAKVDGGYTEDYWGQGTLVTVSSGGGGSGGGGSGGGGSQSVLTQPPSASGTPGQRVTISCSGSGSNIGSNDVSWYQQIPGTAPKLLIYWNDQRPSGVPDRFSGSKSGISASLAISGLRSEDEADYYCAAWDDSLNGYVFGTGTKVTVL
On to B5, for which, in assay [1], the fold selective binding (hBCMA-expressing HEK293 over parental HEK293) was 3.4 fold.

B6: BCMA-30 scFv (scFv, V domains shown)
VH: QVQLVQSGGGLVQPGRSLRLSCAASGFTFGDYAMHWVRQAPGKGLEWVSGISWNSGSIGYADSVKGRFTISRDNAKNSLYLQMNSLRAEDTAVYYCARDLDPDDAFDIWGQGTMVTVSS
In the case of B6, the binding result in assay [3] is given as “binds”.

For the origin of these results see patent publication US20230365699A1 (published 2023).
